Test results reported in PMC4423959, “The Nucleoid Occlusion SlmA Protein Accelerates the Disassembly of the FtsZ Protein Polymers without Affecting Their GTPase Activity” (PLoS ONE, 2015).
Where two headings read alike, the source gives them in different places.

T1: SlmA (UniProt P0C093 1-198)
T1 sequence: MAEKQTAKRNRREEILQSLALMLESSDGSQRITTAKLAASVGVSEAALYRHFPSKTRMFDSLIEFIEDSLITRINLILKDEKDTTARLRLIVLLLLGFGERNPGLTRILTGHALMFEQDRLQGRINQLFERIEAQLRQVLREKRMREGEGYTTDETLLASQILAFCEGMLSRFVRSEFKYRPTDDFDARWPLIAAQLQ

B1: SlmA (free, without DNA) (natural protein, E. coli, UniProt P0C093 1-198, looked up)
chain: T1 sequence
notes: Nucleoid occlusion factor SlmA of E. coli; Dimer by SEC-MALLS in the absence of DNA; also called free SlmA; source: purified and cleaved from SUMO protein essentially as described in [31]
B2: SlmA·SBS complex (four SlmA monomers, as two dimers, bound to one SBScons DNA) (complex, E. coli, UniProt P0C093 1-198, looked up)
chain: T1 sequence
notes: Nucleoid occlusion factor SlmA of E. coli; same chain as m2; 4:1 SlmA:SBS by sedimentation velocity and SEC-MALLS; also called SlmA SBScons; SlmA:SBScons
B3: SBS12 (dsDNA)
DNA 1: CGCGAAGTGAACGCTAACTCACTG
DNA 2: CAGTGAGTTAGCGTTCACTTCGCG
B4: SBS17 (dsDNA)
DNA 1: TCAACGTTAGTGACCATTTACTTACTTTTG
DNA 2: CAAAAGTAAGTAAATGGTCACTAACGTTGA
B5: E. coli FtsZ (natural protein, UniProt P0A9A6 1-383, looked up)
chain: MFEPMELTNDAVIKVIGVGGGGGNAVEHMVRERIEGVEFFAVNTDAQALRKTAVGQTIQIGSGITKGLGAGANPEVGRNAADEDRDALRAALEGADMVFIAAGMGGGTGTGAAPVVAEVAKDLGILTVAVVTKPFNFEGKKRMAFAEQGITELSKHVDSLITIPNDKLLKVLGRGISLLDAFGAANDVLKGAVQGIAELITRPGLMNVDFADVRTVMSEMGYAMMGSGVASGEDRAEEAAEMAISSPLLEDIDLSGARGVLVNITAGFDLRLDEFETVGNTIRAFASDNATVVIGTSLDPDMNDELRVTVVATGIGMDKRPEITLVTNKQVQQPVMDRYQQHGMAPLTQEQKPVAKVVNDNAPQTAKEPDYLDIPAFLRKQAD
notes: Cell division protein FtsZ of E. coli; The nucleotide state (GDP: oligomers); In AUC and FCS a tracer share of FtsZ labelled on amine groups with Alexa Fluor 488 (FtsZ-Alexa 488) was mixed with unlabelled FtsZ; also called FtsZ-GDP; FtsZ-GTP; source: isolated as described elsewhere [40]
B6: SBScons (dsDNA)
DNA 1: AAGTAAGTGAGCGCTCACTTACGT
DNA 2: ACGTAAGTGAGCGCTCACTTACTT

Tests used:
FtsZ (Escherichia coli) [1] = biological target: FtsZ (Escherichia coli) (UniProt P0A9A6); conditions: cited from earlier work
FtsZ (Escherichia coli) [2] = biological target: FtsZ (Escherichia coli) (UniProt P0A9A6); conditions: cited from earlier work; remark: listed apart in the source
[3] = biological target: the molecule itself; test: SEC-MALS; Superdex 200 10/300 GL, 0.5 mL/min, 20°C, working buffer (50 mM Tris-HCl, 300 mM KCl, 2 mM MgCl2, pH 7.5); SlmA 10 μM (also 6 μM), no DNA
E. coli FtsZ = biological target: B5; test: fluorescence polarisation; anisotropy titration of FtsZ with 1 mM GTP + regeneration system into SlmA 2 μM with fluorescein-SBScons 0.2 μM (also 1 μM and 10 nM); 20°C, working buffer (50 mM Tris-HCl, 300 mM KCl, 2 mM MgCl2, pH 7.5); 1:1 model, apparent Kd in FtsZ monomer concentration; conditions: both partners purified
SlmA [4] = biological target: T1, SlmA; test: fluorescence anisotropy; 300 mM KCl, 2 mM MgCl2; apparent Kd, 4:1 model; dG 17.6 ± 0.2 kcal/mol; 50 mM Tris-HCl, 300 mM KCl, 2 mM MgCl2, pH 7.5, 20 C; 10 nM labeled SBS in SlmA anisotropy titrations; conditions: protein: recombinant; tags: SUMO tag cleaved off; chain copies: 4; label: 5' fluorescein on sense strand (anisotropy); blunt
SlmA [5] = biological target: T1, SlmA; test: fluorescence anisotropy; 300 mM KCl, 2 mM MgCl2; apparent Kd, 4:1 model; dG 18.0 ± 0.2 kcal/mol; 50 mM Tris-HCl, 300 mM KCl, 2 mM MgCl2, pH 7.5, 20 C; 10 nM labeled SBS in SlmA anisotropy titrations; conditions: protein: recombinant; tags: SUMO tag cleaved off; chain copies: 4; label: fluorescein on T at position 27 from the 5' end of the antisense strand; blunt
[6] = biological target: the molecule itself; test: AUC; sedimentation velocity, 48,000 rpm, 20°C, working buffer (50 mM Tris-HCl, 300 mM KCl, 2 mM MgCl2, pH 7.5); FtsZ-GDP 30 μM total with 6 μM FtsZ-Alexa 488 as tracer, without or with SlmA 15 μM and SBScons 4 μM
SlmA [7] = biological target: T1, SlmA; test: fluorescence anisotropy; 300 mM KCl, 2 mM MgCl2; apparent Kd, 4:1 model; dG 20.3 ± 0.2 kcal/mol; 50 mM Tris-HCl, 300 mM KCl, 2 mM MgCl2, pH 7.5, 20 C; 10 nM labeled SBS in SlmA anisotropy titrations; conditions: protein: recombinant; tags: SUMO tag cleaved off; chain copies: 4; label: 5' fluorescein on sense strand (anisotropy); blunt

Molecule: SlmA (from UniProt P0C093)
Kd (FtsZ (Escherichia coli) [1]): 200 nM

Molecule: MinC (from UniProt P18196)
Kd (FtsZ (Escherichia coli) [2]): 8000 nM

Molecule: B1
stoichiometry N [3]: 2

Molecule: B2
Kd (E. coli FtsZ): 12000 nM

Molecule: B3
Kd (SlmA [4]): 270 ± 50 nM

Molecule: B4
Kd (SlmA [5]): 190 ± 30 nM

Molecule: B5
binding result [6]: binds

Molecule: B6
Kd (SlmA [7]): 25 ± 4 nM
